Holding throughout (assay): SPR (Biacore);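 note: antibody variants captured on sensor chip, Fcγ receptor flowed over at 25 °C, bound receptor normalized to amount of captured antibody, expressed relative to reference antibody set as 100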
(In SPR one partner is held on a chip, and binding of the other changes the refractive index at the surface.)

For test [1], the target named is T1, human FcγRIa (human, UniProt P12314 16-292, limits assumed).
T1 construct: also called FcgRIa; FcγRI (CD64)
Method: (§1) Interaction between each modified antibody and Fcγ receptor prepared in the manner described above was analyzed using the BIACORE™ T100 surface plasmon resonance system (GE Healthcare), BIACORE™ T200 surface plasmon resonance system (GE Healthcare), BIACORE™ A100 surface plasmon resonance system or BIACORE™ 4000 surface plasmon resonance system. HBS-EP+ (GE Healthcare) was used for the running buffer, and measurements were carried out at 25° C. The chips used were chips in which antigen peptides, Protein A (Thermo Scientific), Protein A/G (Thermo Scientific) or Protein L (ACTIGEN® protein (Alltech or BioVision) were immobilized on the Series S Sensor Chip CMS (GE Healthcare) or Series S Sensor Chip CM4 (GE Healthcare) by amine coupling, or chips in which preliminarily biotinylated antigen peptides were allowed to interact and then immobilized on the Series S Sensor Chip SA (certified) (GE Healthcare). The target antibodies were captured on these sensor chips, Fcγ receptor diluted with the running buffer was allowed to interact, followed by measurement of the amount of bound antibody. The amounts bound were compared between antibodies. However, since the amount of Fcγ receptor bound depends on the amount of captured antibody, the values used for comparison were first corrected by dividing the amount of Fcγ receptor bound by the captured amount of each antibody. Through reaction with 10 mM glycine-HCl at pH 1.5, the sensor chips were regenerated by washing off antibody captured on the sensor chips and used repeatedly.
(§2) Binding strength was evaluated according to the following method based on the results of analyzing the interaction with each FcγR. […] That value was then further multiplied by 100, and the resulting value was used as an indicator of relative binding activity to each FcγR.

The target in test [2] is T2, human FcγRIIa(R) (human, UniProt P12318 36-217).
T2 construct: also called FcgRIIaR; FcγRIIa type R
T2 chain: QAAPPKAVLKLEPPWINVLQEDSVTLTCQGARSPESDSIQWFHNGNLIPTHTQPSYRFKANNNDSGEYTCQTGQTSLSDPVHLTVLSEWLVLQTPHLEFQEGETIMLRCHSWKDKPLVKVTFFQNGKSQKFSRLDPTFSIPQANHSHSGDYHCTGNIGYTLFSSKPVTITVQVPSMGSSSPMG
Method: as §1, §2

In test [3] the target is T3, human FcγRIIa(H) (human, UniProt P12318 36-217).
T3 construct: also called FcgRIIaH; FcγRIIa type H
T3 sequence: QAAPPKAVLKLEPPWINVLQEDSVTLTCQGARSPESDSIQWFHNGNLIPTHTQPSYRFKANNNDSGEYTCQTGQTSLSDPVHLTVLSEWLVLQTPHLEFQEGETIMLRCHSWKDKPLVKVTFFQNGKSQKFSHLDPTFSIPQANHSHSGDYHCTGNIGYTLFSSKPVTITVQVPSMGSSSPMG
Method: as §1, §2

The target of test [4] is T4, human FcγRIIb (human, UniProt P31994 43-217, limits assumed).
T4 construct: also called FcgRIIb
T4 sequence: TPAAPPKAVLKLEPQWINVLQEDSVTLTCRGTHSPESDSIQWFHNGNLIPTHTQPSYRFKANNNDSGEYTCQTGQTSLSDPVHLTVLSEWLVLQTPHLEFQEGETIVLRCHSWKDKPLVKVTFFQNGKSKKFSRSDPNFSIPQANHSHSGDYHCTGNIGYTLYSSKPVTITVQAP
Method: as §1, §2

The target of test [5] is T5, human FcγRIIIa(F) (human, UniProt P08637 17-208, limits assumed).
T5 construct: also called FcgRIIIaF; allotype F158
T5 sequence (P08637 other isoform, or with tags, fused parts or gaps limits assumed): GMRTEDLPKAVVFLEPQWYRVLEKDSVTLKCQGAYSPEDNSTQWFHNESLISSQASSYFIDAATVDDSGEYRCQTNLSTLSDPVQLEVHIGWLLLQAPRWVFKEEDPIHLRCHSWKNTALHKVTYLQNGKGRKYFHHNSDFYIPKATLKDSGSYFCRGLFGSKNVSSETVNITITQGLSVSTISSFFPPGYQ
Method: as §1, §2

T1 sequence (P12314 16-292 limits assumed): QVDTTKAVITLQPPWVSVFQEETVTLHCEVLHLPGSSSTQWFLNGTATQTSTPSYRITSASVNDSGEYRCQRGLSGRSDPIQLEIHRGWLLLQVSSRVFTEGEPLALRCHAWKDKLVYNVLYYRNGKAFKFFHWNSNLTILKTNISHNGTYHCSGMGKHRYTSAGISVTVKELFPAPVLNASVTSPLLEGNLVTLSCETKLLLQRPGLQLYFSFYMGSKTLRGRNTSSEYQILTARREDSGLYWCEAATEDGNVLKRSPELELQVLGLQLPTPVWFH

B1: GpH7-B3 variant L235R/GpL16-k0 (antibody, human IgG1)
heavy: not shown
light: DIVMTQSPLSLPVTPGEPASISCQASESLVHSNRNTYLHWYLQKPGQSPQLLIYKVSNRFSGVPDRFSGSGSGTDFTLKISRVEAEDVGVYYCSQNTHVPPTFGQGTKVEIE
notes: copies: 2 + 2
As to B1, the relative binding activity was 0 % of GpH7-B3/GpL16-k0 in test [1]; -4 % of GpH7-B3/GpL16-k0 in test [2]; 1 % of GpH7-B3/GpL16-k0 in test [3]; -2 % of GpH7-B3/GpL16-k0 in test [4]; 9 % of GpH7-B3/GpL16-k0 in test [5].

B2: GpH7-B3 variant P238W/GpL16-k0 (antibody, human IgG1)
heavy: not shown
light: DIVMTQSPLSLPVTPGEPASISCQASESLVHSNRNTYLHWYLQKPGQSPQLLIYKVSNRFSGVPDRFSGSGSGTDFTLKISRVEAEDVGVYYCSQNTHVPPTFGQGTKVEIE
notes: copies: 2 + 2
On to B2, for which the relative binding activity is 99 % of GpH7-B3/GpL16-k0 in test [1]; 25 % of GpH7-B3/GpL16-k0 in test [2]; 2 % of GpH7-B3/GpL16-k0 in test [3]; 13 % of GpH7-B3/GpL16-k0 in test [4]; -1 % of GpH7-B3/GpL16-k0 in test [5].

B3: GpH7-B3 variant L235T/GpL16-k0 (antibody, human IgG1)
heavy: not shown
light: DIVMTQSPLSLPVTPGEPASISCQASESLVHSNRNTYLHWYLQKPGQSPQLLIYKVSNRFSGVPDRFSGSGSGTDFTLKISRVEAEDVGVYYCSQNTHVPPTFGQGTKVEIE
notes: copies: 2 + 2
B3: the relative binding activity in test [1] is 8 % of GpH7-B3/GpL16-k0; in test [2], 28 % of GpH7-B3/GpL16-k0; in test [3], 47 % of GpH7-B3/GpL16-k0; in test [4] it was 26 % of GpH7-B3/GpL16-k0; in test [5] it was 48 % of GpH7-B3/GpL16-k0.

B4: GpH7-B3 variant P238H/GpL16-k0 (antibody, human IgG1)
heavy: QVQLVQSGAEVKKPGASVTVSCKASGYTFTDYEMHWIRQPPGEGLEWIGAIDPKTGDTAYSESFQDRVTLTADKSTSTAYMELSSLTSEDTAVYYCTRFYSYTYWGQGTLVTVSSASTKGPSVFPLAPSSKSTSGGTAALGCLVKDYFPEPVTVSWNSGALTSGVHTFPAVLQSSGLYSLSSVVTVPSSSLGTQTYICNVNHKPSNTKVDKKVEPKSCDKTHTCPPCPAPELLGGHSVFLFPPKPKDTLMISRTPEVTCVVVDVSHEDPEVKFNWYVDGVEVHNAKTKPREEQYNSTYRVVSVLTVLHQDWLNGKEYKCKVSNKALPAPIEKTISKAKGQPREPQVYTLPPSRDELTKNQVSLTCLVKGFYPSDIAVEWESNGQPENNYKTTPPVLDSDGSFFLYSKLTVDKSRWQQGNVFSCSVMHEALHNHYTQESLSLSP
light: DIVMTQSPLSLPVTPGEPASISCQASESLVHSNRNTYLHWYLQKPGQSPQLLIYKVSNRFSGVPDRFSGSGSGTDFTLKISRVEAEDVGVYYCSQNTHVPPTFGQGTKVEIE
notes: copies: 2 + 2
Turning to B4, the relative binding activity was 80 % of GpH7-B3/GpL16-k0 in test [1]; 25 % of GpH7-B3/GpL16-k0 in test [2]; 3 % of GpH7-B3/GpL16-k0 in test [3]; 19 % of GpH7-B3/GpL16-k0 in test [4]; -1 % of GpH7-B3/GpL16-k0 in test [5].

B5: GpH7-B3 variant P238I/GpL16-k0 (antibody, human IgG1)
heavy: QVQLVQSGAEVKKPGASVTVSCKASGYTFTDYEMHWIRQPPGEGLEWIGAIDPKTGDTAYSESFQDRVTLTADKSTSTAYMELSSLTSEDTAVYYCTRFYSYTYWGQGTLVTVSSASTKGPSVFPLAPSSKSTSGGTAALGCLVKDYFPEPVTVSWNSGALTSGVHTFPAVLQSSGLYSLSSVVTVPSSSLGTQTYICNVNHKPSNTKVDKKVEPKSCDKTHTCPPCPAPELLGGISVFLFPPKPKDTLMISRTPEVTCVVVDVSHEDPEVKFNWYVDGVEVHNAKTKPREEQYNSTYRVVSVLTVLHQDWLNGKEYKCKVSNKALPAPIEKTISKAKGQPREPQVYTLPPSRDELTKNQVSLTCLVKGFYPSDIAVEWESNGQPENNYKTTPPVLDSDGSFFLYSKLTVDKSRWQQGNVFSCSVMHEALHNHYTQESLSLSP
light: DIVMTQSPLSLPVTPGEPASISCQASESLVHSNRNTYLHWYLQKPGQSPQLLIYKVSNRFSGVPDRFSGSGSGTDFTLKISRVEAEDVGVYYCSQNTHVPPTFGQGTKVEIE
notes: copies: 2 + 2
As for B5, the relative binding activity in test [1] was 99 % of GpH7-B3/GpL16-k0; in test [2], 43 % of GpH7-B3/GpL16-k0; in test [3] it was 19 % of GpH7-B3/GpL16-k0; in test [4] it was 31 % of GpH7-B3/GpL16-k0; in test [5], 3 % of GpH7-B3/GpL16-k0.

B6: GpH7-B3 variant P238R/GpL16-k0 (antibody, human IgG1)
heavy: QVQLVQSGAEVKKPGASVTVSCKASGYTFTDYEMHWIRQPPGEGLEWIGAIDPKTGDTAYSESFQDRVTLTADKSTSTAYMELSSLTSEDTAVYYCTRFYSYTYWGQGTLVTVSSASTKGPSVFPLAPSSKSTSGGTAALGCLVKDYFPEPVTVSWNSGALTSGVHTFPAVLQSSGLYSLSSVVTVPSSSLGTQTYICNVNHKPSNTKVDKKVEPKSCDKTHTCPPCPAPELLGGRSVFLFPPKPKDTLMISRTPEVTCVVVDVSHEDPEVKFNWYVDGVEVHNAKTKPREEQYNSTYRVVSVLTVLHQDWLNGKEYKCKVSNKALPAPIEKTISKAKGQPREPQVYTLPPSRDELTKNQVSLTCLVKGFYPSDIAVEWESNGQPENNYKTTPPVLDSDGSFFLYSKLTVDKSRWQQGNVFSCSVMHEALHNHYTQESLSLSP
light: DIVMTQSPLSLPVTPGEPASISCQASESLVHSNRNTYLHWYLQKPGQSPQLLIYKVSNRFSGVPDRFSGSGSGTDFTLKISRVEAEDVGVYYCSQNTHVPPTFGQGTKVEIE
notes: copies: 2 + 2
With B6, the relative binding activity is 1 % of GpH7-B3/GpL16-k0 in test [1]; -1 % of GpH7-B3/GpL16-k0 in test [2]; -1 % of GpH7-B3/GpL16-k0 in test [3]; -2 % of GpH7-B3/GpL16-k0 in test [4]; -1 % of GpH7-B3/GpL16-k0 in test [5].

B7: GpH7-B3 variant P238A/GpL16-k0 (antibody, human IgG1)
heavy: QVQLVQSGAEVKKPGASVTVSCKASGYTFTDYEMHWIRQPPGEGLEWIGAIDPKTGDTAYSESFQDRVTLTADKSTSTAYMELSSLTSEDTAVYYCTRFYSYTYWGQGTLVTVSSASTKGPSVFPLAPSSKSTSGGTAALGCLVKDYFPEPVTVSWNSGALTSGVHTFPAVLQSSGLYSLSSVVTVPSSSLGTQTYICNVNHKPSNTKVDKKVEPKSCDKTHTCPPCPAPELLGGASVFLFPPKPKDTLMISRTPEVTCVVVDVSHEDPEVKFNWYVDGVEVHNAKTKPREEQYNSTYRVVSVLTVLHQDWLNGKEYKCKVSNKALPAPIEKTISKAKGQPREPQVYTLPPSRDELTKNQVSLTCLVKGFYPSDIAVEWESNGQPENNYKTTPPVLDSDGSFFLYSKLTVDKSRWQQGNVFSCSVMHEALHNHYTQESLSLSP
light: DIVMTQSPLSLPVTPGEPASISCQASESLVHSNRNTYLHWYLQKPGQSPQLLIYKVSNRFSGVPDRFSGSGSGTDFTLKISRVEAEDVGVYYCSQNTHVPPTFGQGTKVEIE
notes: copies: 2 + 2
Take B7: the relative binding activity in test [1] was 95 % of GpH7-B3/GpL16-k0; in test [2] it was 38 % of GpH7-B3/GpL16-k0; in test [3], 15 % of GpH7-B3/GpL16-k0; in test [4] it was 26 % of GpH7-B3/GpL16-k0; in test [5], 5 % of GpH7-B3/GpL16-k0.

B8: GpH7-B3 variant L235V/GpL16-k0 (antibody, human IgG1)
heavy: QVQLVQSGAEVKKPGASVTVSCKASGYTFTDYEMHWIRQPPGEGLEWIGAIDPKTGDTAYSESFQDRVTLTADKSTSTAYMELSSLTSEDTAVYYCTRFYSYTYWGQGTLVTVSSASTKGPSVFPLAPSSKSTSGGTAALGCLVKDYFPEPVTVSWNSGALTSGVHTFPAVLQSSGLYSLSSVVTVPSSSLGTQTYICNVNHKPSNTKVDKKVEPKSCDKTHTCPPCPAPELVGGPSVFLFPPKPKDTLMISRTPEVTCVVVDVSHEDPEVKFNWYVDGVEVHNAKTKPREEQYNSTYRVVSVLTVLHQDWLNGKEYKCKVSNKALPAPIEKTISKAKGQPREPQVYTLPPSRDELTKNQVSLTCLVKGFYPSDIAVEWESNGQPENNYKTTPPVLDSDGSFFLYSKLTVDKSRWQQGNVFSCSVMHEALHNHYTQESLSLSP
light: DIVMTQSPLSLPVTPGEPASISCQASESLVHSNRNTYLHWYLQKPGQSPQLLIYKVSNRFSGVPDRFSGSGSGTDFTLKISRVEAEDVGVYYCSQNTHVPPTFGQGTKVEIE
notes: copies: 2 + 2
Consider B8, for which the relative binding activity was 69 % of GpH7-B3/GpL16-k0 in test [1]; 50 % of GpH7-B3/GpL16-k0 in test [2]; 68 % of GpH7-B3/GpL16-k0 in test [3]; 47 % of GpH7-B3/GpL16-k0 in test [4]; 77 % of GpH7-B3/GpL16-k0 in test [5].

B9: GpH7-B3 variant P238T/GpL16-k0 (antibody, human IgG1)
heavy: not shown
light: DIVMTQSPLSLPVTPGEPASISCQASESLVHSNRNTYLHWYLQKPGQSPQLLIYKVSNRFSGVPDRFSGSGSGTDFTLKISRVEAEDVGVYYCSQNTHVPPTFGQGTKVEIE
notes: copies: 2 + 2
As for B9, the relative binding activity in test [1] was 67 % of GpH7-B3/GpL16-k0; in test [2], 19 % of GpH7-B3/GpL16-k0; in test [3] it was 6 % of GpH7-B3/GpL16-k0; in test [4], 8 % of GpH7-B3/GpL16-k0; in test [5] it was 0 % of GpH7-B3/GpL16-k0.

B10: GpH7-B3 variant P238K/GpL16-k0 (antibody, human IgG1)
heavy: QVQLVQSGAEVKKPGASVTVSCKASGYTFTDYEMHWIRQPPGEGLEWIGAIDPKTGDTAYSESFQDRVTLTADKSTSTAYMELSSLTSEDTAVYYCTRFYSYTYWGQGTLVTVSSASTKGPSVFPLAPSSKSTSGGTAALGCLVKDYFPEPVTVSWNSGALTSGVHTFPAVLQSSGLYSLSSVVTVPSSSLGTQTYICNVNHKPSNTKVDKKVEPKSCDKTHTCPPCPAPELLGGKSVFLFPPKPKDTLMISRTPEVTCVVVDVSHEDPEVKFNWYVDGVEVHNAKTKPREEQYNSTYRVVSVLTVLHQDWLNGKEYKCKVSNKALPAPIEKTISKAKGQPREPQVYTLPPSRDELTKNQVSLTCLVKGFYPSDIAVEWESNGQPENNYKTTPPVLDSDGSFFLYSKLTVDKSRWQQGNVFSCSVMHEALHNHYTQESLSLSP
light: DIVMTQSPLSLPVTPGEPASISCQASESLVHSNRNTYLHWYLQKPGQSPQLLIYKVSNRFSGVPDRFSGSGSGTDFTLKISRVEAEDVGVYYCSQNTHVPPTFGQGTKVEIE
notes: copies: 2 + 2
Consider B10, for which the relative binding activity in test [1] is 8 % of GpH7-B3/GpL16-k0; in test [2], -2 % of GpH7-B3/GpL16-k0; in test [3], -1 % of GpH7-B3/GpL16-k0; in test [4] it was -2 % of GpH7-B3/GpL16-k0; in test [5], -1 % of GpH7-B3/GpL16-k0.

B11: GpH7-B3 variant P238G/GpL16-k0 (antibody, human IgG1)
heavy: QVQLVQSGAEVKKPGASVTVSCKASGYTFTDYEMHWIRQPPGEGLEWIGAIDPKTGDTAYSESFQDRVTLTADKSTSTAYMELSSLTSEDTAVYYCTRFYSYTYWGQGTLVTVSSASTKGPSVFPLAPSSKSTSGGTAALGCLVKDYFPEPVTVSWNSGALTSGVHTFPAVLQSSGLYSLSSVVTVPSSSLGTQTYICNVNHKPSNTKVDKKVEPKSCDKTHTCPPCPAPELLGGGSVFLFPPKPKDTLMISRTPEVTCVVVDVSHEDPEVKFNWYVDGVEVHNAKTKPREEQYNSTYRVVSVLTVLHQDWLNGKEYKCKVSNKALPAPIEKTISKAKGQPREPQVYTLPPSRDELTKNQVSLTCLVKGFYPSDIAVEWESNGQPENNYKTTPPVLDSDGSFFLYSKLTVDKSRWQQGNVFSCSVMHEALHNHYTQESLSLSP
light: DIVMTQSPLSLPVTPGEPASISCQASESLVHSNRNTYLHWYLQKPGQSPQLLIYKVSNRFSGVPDRFSGSGSGTDFTLKISRVEAEDVGVYYCSQNTHVPPTFGQGTKVEIE
notes: copies: 2 + 2
As for B11, the relative binding activity in test [1] was 65 % of GpH7-B3/GpL16-k0; in test [2], 4 % of GpH7-B3/GpL16-k0; in test [3], 1 % of GpH7-B3/GpL16-k0; in test [4], 27 % of GpH7-B3/GpL16-k0; in test [5], 0 % of GpH7-B3/GpL16-k0.

B12: GpH7-B3 variant P238S/GpL16-k0 (antibody, human IgG1)
heavy: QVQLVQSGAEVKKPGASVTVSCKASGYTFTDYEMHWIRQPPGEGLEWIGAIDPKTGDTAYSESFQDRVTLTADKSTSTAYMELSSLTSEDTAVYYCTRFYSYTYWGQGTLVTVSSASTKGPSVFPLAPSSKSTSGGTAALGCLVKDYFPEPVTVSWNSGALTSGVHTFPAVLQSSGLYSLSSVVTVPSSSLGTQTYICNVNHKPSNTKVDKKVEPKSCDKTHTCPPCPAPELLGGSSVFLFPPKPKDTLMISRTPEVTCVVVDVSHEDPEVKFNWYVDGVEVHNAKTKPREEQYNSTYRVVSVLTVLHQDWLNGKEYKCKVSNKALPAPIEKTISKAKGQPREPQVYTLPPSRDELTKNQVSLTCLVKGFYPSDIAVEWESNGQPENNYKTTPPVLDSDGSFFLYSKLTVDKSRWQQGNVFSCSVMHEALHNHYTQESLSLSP
light: DIVMTQSPLSLPVTPGEPASISCQASESLVHSNRNTYLHWYLQKPGQSPQLLIYKVSNRFSGVPDRFSGSGSGTDFTLKISRVEAEDVGVYYCSQNTHVPPTFGQGTKVEIE
notes: copies: 2 + 2
Regarding B12, the relative binding activity in test [1] was 91 % of GpH7-B3/GpL16-k0; in test [2], 32 % of GpH7-B3/GpL16-k0; in test [3], 13 % of GpH7-B3/GpL16-k0; in test [4], 28 % of GpH7-B3/GpL16-k0; in test [5] it was 3 % of GpH7-B3/GpL16-k0.

B13: GpH7-B3 variant L235S/GpL16-k0 (antibody, human IgG1)
heavy: not shown
light: DIVMTQSPLSLPVTPGEPASISCQASESLVHSNRNTYLHWYLQKPGQSPQLLIYKVSNRFSGVPDRFSGSGSGTDFTLKISRVEAEDVGVYYCSQNTHVPPTFGQGTKVEIE
notes: copies: 2 + 2
In the case of B13, the relative binding activity in test [1] is 11 % of GpH7-B3/GpL16-k0; in test [2] it was 29 % of GpH7-B3/GpL16-k0; in test [3], 39 % of GpH7-B3/GpL16-k0; in test [4], 23 % of GpH7-B3/GpL16-k0; in test [5], 36 % of GpH7-B3/GpL16-k0.

B14: GpH7-B3 variant P238N/GpL16-k0 (antibody, human IgG1)
heavy: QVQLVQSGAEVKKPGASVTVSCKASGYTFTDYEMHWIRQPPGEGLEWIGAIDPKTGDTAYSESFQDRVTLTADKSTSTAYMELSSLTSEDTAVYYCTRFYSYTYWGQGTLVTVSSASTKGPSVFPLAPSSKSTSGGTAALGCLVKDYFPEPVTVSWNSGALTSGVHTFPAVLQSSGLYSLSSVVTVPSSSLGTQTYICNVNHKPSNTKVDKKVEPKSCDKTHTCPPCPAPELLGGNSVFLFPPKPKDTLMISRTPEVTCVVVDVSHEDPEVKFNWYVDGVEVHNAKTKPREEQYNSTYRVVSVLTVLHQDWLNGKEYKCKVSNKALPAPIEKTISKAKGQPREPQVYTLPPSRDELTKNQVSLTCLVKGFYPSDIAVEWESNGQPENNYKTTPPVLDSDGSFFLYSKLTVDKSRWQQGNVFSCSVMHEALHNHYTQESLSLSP
light: DIVMTQSPLSLPVTPGEPASISCQASESLVHSNRNTYLHWYLQKPGQSPQLLIYKVSNRFSGVPDRFSGSGSGTDFTLKISRVEAEDVGVYYCSQNTHVPPTFGQGTKVEIE
notes: copies: 2 + 2
Regarding B14, the relative binding activity was 64 % of GpH7-B3/GpL16-k0 in test [1]; 5 % of GpH7-B3/GpL16-k0 in test [2]; 1 % of GpH7-B3/GpL16-k0 in test [3]; 27 % of GpH7-B3/GpL16-k0 in test [4]; -1 % of GpH7-B3/GpL16-k0 in test [5].

B15: GpH7-B3 variant P238Q/GpL16-k0 (antibody, human IgG1)
heavy: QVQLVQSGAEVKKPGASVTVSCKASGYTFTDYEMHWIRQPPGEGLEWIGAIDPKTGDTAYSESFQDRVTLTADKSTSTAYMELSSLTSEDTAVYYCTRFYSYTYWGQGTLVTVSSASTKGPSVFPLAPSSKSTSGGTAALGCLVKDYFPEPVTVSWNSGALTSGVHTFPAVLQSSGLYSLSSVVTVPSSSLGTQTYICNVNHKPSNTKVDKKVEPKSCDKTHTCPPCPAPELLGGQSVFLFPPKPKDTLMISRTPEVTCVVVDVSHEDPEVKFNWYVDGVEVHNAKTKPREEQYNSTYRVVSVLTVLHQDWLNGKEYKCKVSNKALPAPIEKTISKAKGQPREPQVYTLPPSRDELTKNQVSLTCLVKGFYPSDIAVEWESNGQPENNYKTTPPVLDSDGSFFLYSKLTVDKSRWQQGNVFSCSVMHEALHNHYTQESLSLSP
light: DIVMTQSPLSLPVTPGEPASISCQASESLVHSNRNTYLHWYLQKPGQSPQLLIYKVSNRFSGVPDRFSGSGSGTDFTLKISRVEAEDVGVYYCSQNTHVPPTFGQGTKVEIE
notes: copies: 2 + 2
For the molecule B15, the relative binding activity in test [1] is 84 % of GpH7-B3/GpL16-k0; in test [2], 19 % of GpH7-B3/GpL16-k0; in test [3], 4 % of GpH7-B3/GpL16-k0; in test [4], 43 % of GpH7-B3/GpL16-k0; in test [5] it was -1 % of GpH7-B3/GpL16-k0.

Source of the values: patent publication US20200199241A1 (Chugai, published 2020).
